Data as given in PMC1592478.

Biological target: human syndecan-1 with C-terminal HA tag (Syn-1-HA), stably expressed on GM00701 cells (human) (UniProt P18827)
Assay: radioligand binding; ^125I-apoE-VLDL (2 μg/ml; in Figure 2C supplemented with 3 μg/ml apoE) on GM00701 or GM00701/Syn-1-HA cells, 4°C, 3 h, 20 mM Hepes pH 7.4, 150 mM NaCl, 2 mM CaCl2, 1% BSA; without or with unlabeled apoE-VLDL (100 μg/ml); specific binding = total minus non-competable

UniProt P18827, sequence (P18827 23-310): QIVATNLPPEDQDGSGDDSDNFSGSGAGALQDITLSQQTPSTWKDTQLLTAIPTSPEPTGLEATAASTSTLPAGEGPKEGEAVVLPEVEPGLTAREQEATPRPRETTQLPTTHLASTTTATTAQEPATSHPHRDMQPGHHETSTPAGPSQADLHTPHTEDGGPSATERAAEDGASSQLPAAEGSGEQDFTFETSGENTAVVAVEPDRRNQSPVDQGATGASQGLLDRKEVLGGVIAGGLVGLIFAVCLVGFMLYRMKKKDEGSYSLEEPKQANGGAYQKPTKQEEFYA

In the case of “apoE-VLDL (very low density lipoprotein particles with apoB100 and apoE, from rabbit plasma) (from UniProt P18287 19-311; P17165 1-144) (complex)”, the fold increase in specific binding over control GM00701 cells is reported as 5 fold.
